Reference: paper PMC8213705

What was measured:
[1] = biological target: Microtubule polymerized from MAP-free bovine brain tubulin (GMPCPP- and taxol-stabilized, with biotinylated ends) (bovine) (UniProt Q6B856); experiment: optical trapping (single-filament interaction forces); pure CB; microtubule turned by 45°, IF moved vertically; 49 filament pairs
[2] = biological target: Microtubule polymerized from MAP-free bovine brain tubulin (GMPCPP- and taxol-stabilized, with biotinylated ends) (bovine) (UniProt Q6B856); experiment: optical trapping (single-filament interaction forces); as a1 (perpendicular, vertical movement) in CB with 0.1% (w/v) Triton-X 100; 38 filament pairs
[3] = biological target: Microtubule polymerized from MAP-free bovine brain tubulin (GMPCPP- and taxol-stabilized, with biotinylated ends) (bovine) (UniProt Q6B856); experiment: optical trapping (single-filament interaction forces); as a1 (perpendicular, vertical movement) in CB with a total of 20 mM magnesium (18 mM MgCl2 added); 36 filament pairs
[4] = biological target: Microtubule polymerized from MAP-free bovine brain tubulin (GMPCPP- and taxol-stabilized, with biotinylated ends) (bovine) (UniProt Q6B856); experiment: optical trapping (single-filament interaction forces); pure CB; perpendicular configuration, IF moved horizontally (x-direction) along the microtubule at 0.55 μm/s; 43 filament pairs
[5] = biological target: Microtubule polymerized from MAP-free bovine brain tubulin (GMPCPP- and taxol-stabilized, with biotinylated ends) (bovine) (UniProt Q6B856); experiment: optical trapping (single-filament interaction forces); one vimentin IF and one microtubule each held between a pair of streptavidin beads; crossed perpendicularly, IF moved vertically (y-direction) at 0.55 μm/s; pure CB (1 mM EGTA, 2 mM MgCl2, 25 mM PIPES, 60 mM KCl, 2 mM sodium phosphate, pH 7.5, 0.01 mM taxol, oxygen scavenger, 20 mM DTT); 57 filament pairs

Sequence of UniProt Q6B856 (Q6B856 whole entry, looked up): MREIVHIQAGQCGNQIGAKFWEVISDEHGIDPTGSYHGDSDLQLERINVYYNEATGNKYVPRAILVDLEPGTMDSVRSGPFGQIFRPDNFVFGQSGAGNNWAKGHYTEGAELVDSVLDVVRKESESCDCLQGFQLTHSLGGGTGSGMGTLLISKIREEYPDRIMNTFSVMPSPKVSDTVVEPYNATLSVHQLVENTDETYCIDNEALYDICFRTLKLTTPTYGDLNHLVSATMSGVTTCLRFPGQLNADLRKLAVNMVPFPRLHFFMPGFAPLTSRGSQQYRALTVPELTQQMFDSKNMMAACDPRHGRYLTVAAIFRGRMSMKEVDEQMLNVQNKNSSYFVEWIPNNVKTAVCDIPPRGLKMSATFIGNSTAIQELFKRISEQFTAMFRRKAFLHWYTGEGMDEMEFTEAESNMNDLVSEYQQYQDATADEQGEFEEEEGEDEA

- effective binding rate r b,eff (interactions larger than 1 pN per unbound time) [1]: 0.016 s⁻¹
- effective binding rate r b,eff (interactions larger than 1 pN per unbound time) [2]: 0.0056 s⁻¹
- effective binding rate r b,eff (interactions larger than 1 pN per unbound time) [3]: 0.013 s⁻¹
- effective binding rate r b,eff (interactions larger than 1 pN per unbound time) [4]: 0.024 s⁻¹
- effective binding rate r b,eff (interactions larger than 1 pN per unbound time) [5]: 0.011 s⁻¹
- probability of binding p IF-MT per pair of vimentin unit-length filament and tubulin dimer ([5]; scale: per pair of vimentin unit-length filament and tubulin dimer): 0.00061
Substance: Vimentin intermediate filament, assembled from vimentin C328N with two additional glycines and one additional cysteine at the C-terminus (natural protein)
